Where two headings read alike, the source gives them in different places.
What was measured:
[1] = target: HR-C1 (1147-1185) (SARS coronavirus (Urbani strain)); test: CD thermal denaturation of the mixture at 222 nm
[2] = target: HR-C1 (1147-1185) (SARS coronavirus (Urbani strain)); test: SEC of equimolar mixture (Superdex 75)
[3] = target: HR-C1 (1147-1185) (SARS coronavirus (Urbani strain))
[4] = target: HR-C1 (1147-1185) (SARS coronavirus (Urbani strain)); test: CD at 222 nm of the peptide mixture, 22 °C, 0.05 M K2PO4 buffer
[5] = target: HR-C2 (1165-1185) (SARS coronavirus (Urbani strain))
[6] = target: HR-C4 (1151-1185) (SARS coronavirus (Urbani strain))
[7] = target: HR-C3 (1158-1185) (SARS coronavirus (Urbani strain))

Binder | T1/2 of the complex [3] [°C] | [θ]222 observed (degrees·cm^2·dmol^-1) [3] | other results
FNKAISQIQESLTTTSTALGKLQDVVNQNAQALNT (modifications not checked) [HR-N9 (909-943)] | 36 | -10800 | rise of T1/2 relative to HR-C1 alone [1]: 3 °C; higher molecular weight complex, percent of observed SEC area units [2]: 30%
HR-N2 (916-973) (modifications not checked) peptide: IQESLTTTSTALGKLQDVVNQNAQALNTLVKQLSSNFGAISSVLNDILSRLDKVEAEV | 74 | -17900 | rise of T1/2 relative to HR-N2 alone [1]: 6 °C
QKQIANQFNKAISQIQESLTTTSTALGKLQDVVNQ (modifications not checked) [HR-N8 (902-936)] |  | -7900 | 
QNVLYENQKQIANQFNKAISQIQESLTTTSTALGK (modifications not checked) [HR-N7 (895-929)] |  | -7400 | 
TSTALGKLQDVVNQNAQALNTLVKQLSSNFGAISS (modifications not checked) [HR-N11 (923-957)] |  | -8000 | 
MQMAYRFNGIGVTQNVLYENQKQIANQFNKAISQI (modifications not checked) [HR-N5 (882-916)] |  |  | [θ]222 observed (degrees·cm^2·dmol^-1) [4]: -8500
FNGIGVTQNVLYENQKQIANQFNKAISQIQESLTT (modifications not checked) [HR-N6 (888-922)] |  | -8600 | 
IQESLTTTSTALGKLQDVVNQNAQALNTLVKQLSS (modifications not checked) [HR-N10 (916-950)] | 57 | -17700 | increase of T1/2 from HR-C1 [1]: 24 °C; [θ]222 observed (degrees·cm^2·dmol^-1) [5]: -3800; T1/2 of the complex [6]: 56 °C; [θ]222 observed (degrees·cm^2·dmol^-1) [6]: -17900; [θ]222 observed (degrees·cm^2·dmol^-1) [7]: -4900
